The source of these data is the supplement of paper PMC12783771.

± gives the standard deviation of the averaged measurements.

B1: library; numbered along this chain (parent)
chain: MNIQIGELAKRTACPVVTIRFYEQEGLLPPPGRSRGNFRLYGEEHVERLQFIRHCRSLDMPLSDVRTLLSYRKRPDQDCGEVNMLLDEHIRQVESRIGALLELKHHLVELREACSGARPAQSCGILQGLSDCVCDTRGTTAHPSD

Series [1] covers variants of B1. Kind of series: sfGFP reporter fluorescence (15 h) (µM FITC); higher = higher leak. The conditions noted are these: library round: Round 0; ligand: none. In short, it runs like this:
(§1)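 Linear PbrR templates were made by PCR, normalized to 5 nM with an Echo, and expressed in BL21 Star (DE3) PANOx-SP extract with the pPbrR-sfGFP reporter plasmid and 30 μg/mL GamS. Echo-assembled 1 μL reactions held 1 µM lead chloride, 30 µM zinc acetate or no metal and were incubated 15 hr at 30 °C. Endpoint sfGFP fluorescence was read on a Synergy Neo2 and expressed as µM FITC using standard curves. Up to three biological replicates were run.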

The variants in series [2] derive from B1. The experiment in a line: sfGFP reporter fluorescence (15 h) (µM FITC); higher = stronger transcriptional activation. The settings on record: library round: Round 0. In short, it runs like this:
as §1

On to E112K, for which the values for the sfGFP reporter fluorescence in series [1], in series [2] (ligand: 1 µM Pb) and in series [2] (ligand: 30 µM Zn) were 0.0706 ± 0.00078, 0.1164 ± 0.00078 and 2.4 ± 0.25, respectively.

Turning to E112P, the sfGFP reporter fluorescence in series [1] worked out at 0.0557 ± 0.001; in series [2] (ligand: 1 µM Pb), 0.057 ± 0.00078; in series [2] (ligand: 30 µM Zn), 0.0561.

For the variant E112H, the sfGFP reporter fluorescence in series [1] came to 0.05882 ± 0.00026; in series [2] (ligand: 1 µM Pb) it was 0.077 ± 0.0057; in series [2] (ligand: 30 µM Zn), 0.424 ± 0.012.

E112L: the sfGFP reporter fluorescence worked out at 0.0603 ± 0.00078 in series [1], 0.0867 ± 0.0034 in series [2] (ligand: 1 µM Pb) and 0.851 ± 0.048 in series [2] (ligand: 30 µM Zn).

Regarding E112F, the sfGFP reporter fluorescence in series [1] turned out to be 0.0575 ± 0.0026; in series [2] (ligand: 1 µM Pb) it was 0.0647 ± 0.0023; in series [2] (ligand: 30 µM Zn) it was 0.24 ± 0.012.

For E112A, the sfGFP reporter fluorescence in series [1] stood at 0.063 ± 0.0021; in series [2] (ligand: 1 µM Pb) it was 0.0929 ± 0.0039; in series [2] (ligand: 30 µM Zn), 1.31 ± 0.092.

As for E112G, the sfGFP reporter fluorescence in series [1] turned out to be 0.0586 ± 0.0026; in series [2] (ligand: 1 µM Pb), 0.0847 ± 0.0042; in series [2] (ligand: 30 µM Zn), 1.23 ± 0.12.

Turning to E112I, the sfGFP reporter fluorescence came to 0.0542 ± 0.0015 in series [1], 0.06175 ± 0.00026 in series [2] (ligand: 1 µM Pb) and 0.282 ± 0.021 in series [2] (ligand: 30 µM Zn).

Consider E112Y, for which the sfGFP reporter fluorescence in series [1] amounted to 0.05919 ± 0.00026; in series [2] (ligand: 1 µM Pb), 0.06395 ± 0.00026; in series [2] (ligand: 30 µM Zn) it was 0.198 ± 0.028.

Take E112W: the sfGFP reporter fluorescence in series [1] stood at 0.0579 ± 0.0015; in series [2] (ligand: 1 µM Pb), 0.0627 ± 0.001; in series [2] (ligand: 30 µM Zn) it was 0.152 ± 0.014.

Consider E112N, for which the figures for the sfGFP reporter fluorescence in series [1], in series [2] (ligand: 1 µM Pb) and in series [2] (ligand: 30 µM Zn) were 0.06212 ± 0.00026, 0.079 ± 0.0029 and 1.04 ± 0.13, respectively.

For S115A, the sfGFP reporter fluorescence was found to be 0.0599 ± 0.00078 in series [1], 0.0663 ± 0.0047 in series [2] (ligand: 1 µM Pb) and 0.478 ± 0.14 in series [2] (ligand: 30 µM Zn).

Consider G124A, for which the sfGFP reporter fluorescence in series [1] was 0.05919 ± 0.00026; in series [2] (ligand: 1 µM Pb), 0.064 ± 0.0013; in series [2] (ligand: 30 µM Zn), 0.222 ± 0.015.

As to L107G, the values for the sfGFP reporter fluorescence in series [1], in series [2] (ligand: 1 µM Pb) and in series [2] (ligand: 30 µM Zn) were 0.05956 ± 0.00026, 0.0836 ± 0.0036 and 0.4444 ± 0.0044, respectively.

As for L107I, the results for the sfGFP reporter fluorescence in series [1], in series [2] (ligand: 1 µM Pb) and in series [2] (ligand: 30 µM Zn) were 0.0579 ± 0.001, 0.0671 ± 0.0036 and 0.808 ± 0.065, respectively.

For the variant L107S, the sfGFP reporter fluorescence amounted to 0.12 ± 0.0091 in series [1], 0.5454 ± 0.0042 in series [2] (ligand: 1 µM Pb) and 2.27 ± 0.042 in series [2] (ligand: 30 µM Zn).

As to L107D, the sfGFP reporter fluorescence in series [1] turned out to be 0.0586 ± 0.0021; in series [2] (ligand: 1 µM Pb), 0.0596 ± 0.0018; in series [2] (ligand: 30 µM Zn) it was 0.0579 ± 0.0026.

In the case of L107W, the values for the sfGFP reporter fluorescence in series [1], in series [2] (ligand: 1 µM Pb) and in series [2] (ligand: 30 µM Zn) were 0.0599 ± 0.0013, 0.0638 and 0.118 ± 0.0013, respectively.

Consider L107N, for which the values for the sfGFP reporter fluorescence in series [1], in series [2] (ligand: 1 µM Pb) and in series [2] (ligand: 30 µM Zn) were 0.0546 ± 0.0047, 0.0759 ± 0.0015 and 0.511 ± 0.027, respectively.

As for L107M, the values for the sfGFP reporter fluorescence in series [1], in series [2] (ligand: 1 µM Pb) and in series [2] (ligand: 30 µM Zn) were 0.0546 ± 0.0015, 0.0605 ± 0.0026 and 0.371 ± 0.046, respectively.

For L107H, the sfGFP reporter fluorescence in series [1] worked out at 0.05662 ± 0.00026; in series [2] (ligand: 1 µM Pb) it was 0.0535 ± 0.0021; in series [2] (ligand: 30 µM Zn) it was 0.0821 ± 0.0015.

Turning to L107T, the sfGFP reporter fluorescence came to 0.0797 ± 0.0054 in series [1], 0.282 ± 0.015 in series [2] (ligand: 1 µM Pb) and 1.93 ± 0.22 in series [2] (ligand: 30 µM Zn).

Take L107F: the sfGFP reporter fluorescence in series [1] amounted to 0.0528 ± 0.0015; in series [2] (ligand: 1 µM Pb) it was 0.0495 ± 0.0021; in series [2] (ligand: 30 µM Zn) it was 0.0636 ± 0.0039.

In the case of L107R, the results for the sfGFP reporter fluorescence in series [1], in series [2] (ligand: 1 µM Pb) and in series [2] (ligand: 30 µM Zn) were 0.059 ± 0.001, 0.055 ± 0.0021 and 0.0781 ± 0.0031, respectively.

L107K: the sfGFP reporter fluorescence in series [1] turned out to be 0.0561 ± 0.0057; in series [2] (ligand: 1 µM Pb), 0.05864 ± 0.00052; in series [2] (ligand: 30 µM Zn), 0.0861 ± 0.0026.

As for L107Q, the sfGFP reporter fluorescence was 0.0579 ± 0.0047 in series [1], 0.08521 ± 0.00078 in series [2] (ligand: 1 µM Pb) and 0.764 ± 0.047 in series [2] (ligand: 30 µM Zn).

For L107E, the values for the sfGFP reporter fluorescence in series [1], in series [2] (ligand: 1 µM Pb) and in series [2] (ligand: 30 µM Zn) were 0.05882 ± 0.00026, 0.0746 ± 0.0096 and 0.288 ± 0.054, respectively.

L107P: the sfGFP reporter fluorescence is 0.0568 ± 0.0015 in series [1], 0.0528 ± 0.0052 in series [2] (ligand: 1 µM Pb) and 0.0621 ± 0.0018 in series [2] (ligand: 30 µM Zn).

With L107Y, the sfGFP reporter fluorescence was 0.0603 ± 0.0013 in series [1], 0.06762 ± 0.00026 in series [2] (ligand: 1 µM Pb) and 0.209 ± 0.0091 in series [2] (ligand: 30 µM Zn).

Take L107V: the sfGFP reporter fluorescence amounted to 0.0854 ± 0.001 in series [1], 0.19 ± 0.022 in series [2] (ligand: 1 µM Pb) and 2.03 ± 0.021 in series [2] (ligand: 30 µM Zn).

For P119A, the values for the sfGFP reporter fluorescence in series [1], in series [2] (ligand: 1 µM Pb) and in series [2] (ligand: 30 µM Zn) were 0.05992 ± 0.00026, 0.0629 ± 0.0029 and 0.477 ± 0.05, respectively.

In the case of S122A, the sfGFP reporter fluorescence in series [1] stood at 0.06249 ± 0.00026; in series [2] (ligand: 1 µM Pb) it was 0.0762 ± 0.0015; in series [2] (ligand: 30 µM Zn), 0.687 ± 0.05.

On to V108M, for which the sfGFP reporter fluorescence stood at 0.05662 ± 0.00026 in series [1], 0.0682 ± 0.0026 in series [2] (ligand: 1 µM Pb) and 0.583 ± 0.019 in series [2] (ligand: 30 µM Zn).

Turning to V108W, the results for the sfGFP reporter fluorescence in series [1], in series [2] (ligand: 1 µM Pb) and in series [2] (ligand: 30 µM Zn) were 0.0583 ± 0.001, 0.072 ± 0.0029 and 0.554 ± 0.0067, respectively.

Consider V108G, for which the sfGFP reporter fluorescence was determined as 0.057 ± 0.00078 in series [1], 0.0658 ± 0.0049 in series [2] (ligand: 1 µM Pb) and 0.567 ± 0.1 in series [2] (ligand: 30 µM Zn).

V108K: the results for the sfGFP reporter fluorescence in series [1], in series [2] (ligand: 1 µM Pb) and in series [2] (ligand: 30 µM Zn) were 0.0607 ± 0.00078, 0.0803 ± 0.0026 and 1.13 ± 0.093, respectively.

For the variant V108C, the sfGFP reporter fluorescence in series [1] stood at 0.0594 ± 0.0026; in series [2] (ligand: 1 µM Pb), 0.0788 ± 0.0015; in series [2] (ligand: 30 µM Zn), 1.04 ± 0.091.

With V108E, the sfGFP reporter fluorescence in series [1] came out at 0.0579 ± 0.001; in series [2] (ligand: 1 µM Pb) it was 0.06652 ± 0.00026; in series [2] (ligand: 30 µM Zn) it was 0.62 ± 0.11.

With V108Y, the values for the sfGFP reporter fluorescence in series [1], in series [2] (ligand: 1 µM Pb) and in series [2] (ligand: 30 µM Zn) were 0.0608 ± 0.0015, 0.108 ± 0.0021 and 1.18 ± 0.067, respectively.

As to V108P, the sfGFP reporter fluorescence in series [1] amounted to 0.0572 ± 0.0015; in series [2] (ligand: 1 µM Pb), 0.06011 ± 0.00052; in series [2] (ligand: 30 µM Zn) it was 0.0621 ± 0.0018.

With V108D, the sfGFP reporter fluorescence in series [1] came to 0.061 ± 0.00078; in series [2] (ligand: 1 µM Pb), 0.0931 ± 0.0015; in series [2] (ligand: 30 µM Zn), 1.45 ± 0.068.

Regarding V108S, the sfGFP reporter fluorescence in series [1] was determined as 0.0568 ± 0.0026; in series [2] (ligand: 1 µM Pb), 0.0696; in series [2] (ligand: 30 µM Zn), 0.772 ± 0.061.

Take V108F: the figures for the sfGFP reporter fluorescence in series [1], in series [2] (ligand: 1 µM Pb) and in series [2] (ligand: 30 µM Zn) were 0.0561 ± 0.001, 0.0685 ± 0.001 and 0.436 ± 0.028, respectively.

As for V108N, the sfGFP reporter fluorescence worked out at 0.0574 ± 0.0013 in series [1], 0.06414 ± 0.00052 in series [2] (ligand: 1 µM Pb) and 0.611 ± 0.073 in series [2] (ligand: 30 µM Zn).
